Measurements taken from patent publication CN115073591A (INST MILITARY MEDICINE ACADEMY MILITARY SCIENCES PLA, dated 2022).

Target: T1, 人hCD2(His标签)蛋白 (human, UniProt P06729 25-209)
T1 construct: not shown: His tag
T1 sequence: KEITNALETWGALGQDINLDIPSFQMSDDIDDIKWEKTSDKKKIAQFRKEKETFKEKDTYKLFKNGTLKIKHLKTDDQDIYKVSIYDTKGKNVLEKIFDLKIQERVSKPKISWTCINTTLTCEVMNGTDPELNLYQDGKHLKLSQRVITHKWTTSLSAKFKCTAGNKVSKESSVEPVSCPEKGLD
Assay: ELISA, plate coated with hCD2-His at 2 μg/mL

B1: 单克隆抗体8G1 (antibody, V domains shown)
VH: EVLLVESGGGLVKPGGSLKLSCAASGFTFSSYAMSWVRQTPEKRLEWVATITNGGSYNYYPDSVKGRFTISRDNAKNTLYLQMSSLRSEDTAIYYCARSNPYYFDYWGQGTTLTVSP
VL: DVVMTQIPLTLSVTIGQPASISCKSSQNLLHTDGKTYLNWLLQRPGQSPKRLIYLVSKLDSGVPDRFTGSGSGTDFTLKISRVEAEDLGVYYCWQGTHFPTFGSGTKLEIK
binding result: no binding (tested: 0.1μg/mL 8G1)
